Measurements reported in patent publication US20200377551A1 (WAKE FOREST UNIVERSITY HEALTH SCIENCES, published 2020).

Molecular target: T1, Tom20 (UniProt Q15388 1-145)
T1 construct: Endogenous mitochondrial protein used as a specificity control in the MAVS co-IP
T1 sequence (looked up): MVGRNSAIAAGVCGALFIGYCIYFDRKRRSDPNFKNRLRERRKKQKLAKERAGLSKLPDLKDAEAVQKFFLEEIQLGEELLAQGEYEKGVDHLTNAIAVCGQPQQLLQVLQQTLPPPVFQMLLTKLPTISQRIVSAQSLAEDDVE
Test: co-immunoprecipitation with MAVS antibody from HEK293 lysates, immunoblot (FIG. 2E)

B1: mitochondrial antiviral-signaling protein (MAVS) (other)
chain: MPFAEDKTYKYICRNFSNFCNVDVVEILPYLPCLTARDQDRLRATCTLSGNRDTLWHLFNTLQRRPGWVEYFIAALRGCELVDLADEVASVYESYQPRTSDRPPDPLEPPSLPAERPGPPTPAAAHSIPYNSCREKEPSYPMPVQETQAPESPGENSEQALQTLSPRAIPRNPDGGPLESSSDLAALSPLTSSGHQEKDTELGSTHTAGATSSLTPSRGPVSPSVSFQPLARSTPRASRLPGPTGSVVSTGTSFSSSSPGLASAGAAEGKQGAESDQAEPIICSSGAEAPANSLPSKVPTTLMPVNTVALKVPANPASVSTVPSKLPTSSKPPGAVPSNALTNPAPSKLPINSTRAGMVPSKVPTSMVLTKVSASTVPTDGSSRNEETPAAPTPAGATGGSSAWLDSSFENRGLGSELSKPGVLASQVDSPFSGCFEDLAISASTSLGMGPCHGPEENEYKSEGTFGIHVAENPSIQLLEGNPGPPADPDGGPRPQADRKFQEREVPCHRPSPGALWLQVAVTGVLVVTLLVVLYRRRLH
notes: Endogenous full-length MAVS in HEK293 lysates or on isolated mitochondria; also called MAVS protein
  binding result: no binding
